Test results published in patent US20060246519A1 (UTI LIMITED PARTNERSHIP, published 2006).

How the values were obtained:
[1] = target: T1, biotin-conjugated bovine serum albumin (bovine, UniProt P02769 25-607); assay: SPR (BIAcoreX), biotin-conjugated BSA immobilised on CM5 chip, mutein in solution
T1 construct: Immobilised on a CM5 sensor chip; also called biotinylated bovine serum albumin (BSA)
Experimental: (§1) The kinetic parameters (both on- and off-rates for interaction with biotin) of streptavidin muteins were determined in real time using the surface plasmon resonance based BIAcoreX biosensor. Biotin-conjugated bovine serum albumin immobilized on CM5 sensor chip was used to study the reversibility of biotin binding (Qureshi, 2001).

[2] = target: the molecule itself; assay: SDS-PAGE/Western blot of non-boiled culture supernatant; self-association of subunits
[3] = target: T1, biotin-conjugated bovine serum albumin; assay: SPR (BIAcoreX), biotin-conjugated BSA immobilised on CM5 chip, mutein in solution; Kd = kd/ka
Experimental: as §1

[4] = target: the molecule itself; assay: SDS-PAGE/Western blot of non-boiled culture supernatant, 20 uM biotin in medium; self-association of subunits
Experimental: FIG. 3: Western blot analysis of cell culture supernatants from B. subtilis strains producing streptavidin muteins carrying a single mutation. 15 μl of non-boiled sample of culture supernatant was loaded to each lane. Samples on the left set were collected from B. subtilis strains cultured in super-rich medium without additional supplement of biotin. Samples on the right set were collected from B. subtilis strains cultured in super-rich medium with additional supplementation of biotin (20 μM). The blot was probed with polyclonal antibodies against streptavidin and developed using 4-chloro-1-napthol (Bio-Rad) as the colour development agent. […] M, molecular weight markers; wt, wild type streptavidin.
FIG. 4: Analysis of culture supernatants from B. subtilis strains producing streptavidin muteins carrying different combinations of mutations. All these strains were cultivated in super-rich medium supplemented with biotin (20 μM). The 15 μl of non-boiled samples of culture supernatants were loaded. FIG. 4A. Coomassie blue stained SDS-polyacrylamide gel. Bands corresponding to tetrameric and monomeric streptavidin are marked by an asterisk and an arrowhead, respectively. FIG. 4B. Western blot probed with polyclonal antibodies against streptavidin. […]

T1 sequence (P02769 25-607 limits assumed): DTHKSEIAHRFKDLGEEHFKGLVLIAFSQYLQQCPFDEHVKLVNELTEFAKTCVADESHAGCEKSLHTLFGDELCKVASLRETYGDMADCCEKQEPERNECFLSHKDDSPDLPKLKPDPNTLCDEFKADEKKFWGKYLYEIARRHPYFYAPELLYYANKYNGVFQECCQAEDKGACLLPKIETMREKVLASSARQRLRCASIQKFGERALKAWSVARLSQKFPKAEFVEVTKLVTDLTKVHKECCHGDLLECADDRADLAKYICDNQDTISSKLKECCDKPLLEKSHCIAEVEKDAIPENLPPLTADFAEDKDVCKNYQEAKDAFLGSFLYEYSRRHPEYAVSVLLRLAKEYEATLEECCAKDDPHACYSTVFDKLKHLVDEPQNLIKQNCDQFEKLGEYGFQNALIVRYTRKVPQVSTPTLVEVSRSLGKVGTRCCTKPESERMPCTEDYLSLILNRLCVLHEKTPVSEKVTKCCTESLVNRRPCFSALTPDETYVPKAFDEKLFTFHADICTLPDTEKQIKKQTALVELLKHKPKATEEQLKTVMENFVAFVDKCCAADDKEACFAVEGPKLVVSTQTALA

B1: streptavidin mutein M4 (T76R, V125R, V55T, L109T), secreted by B. subtilis (other)
chain: DPSKDSKAQVSAAEAGITGTWYNQLGSTFIVTAGADGALTGTYESAVGNAESRYTLTGRYDSAPATDGSGTALGWRVAWKNNYRNAHSATTWSGQYVGGAEARINTQWTLTSGTTEANAWKSTLRGHDTFTKVKPSAASIDAAKKAGVNNGNPLDAVQQ
notes: Monomeric in solution; also called M4 mutein
koff [1]: 0.00339 s⁻¹ | kon [1]: 18000 M⁻¹ s⁻¹ | % tetramer, no additional biotin [2]: 0% | Kd [3]: 187 nM | % tetramer, with additional biotin [4]: 0%
